{
  "source": "patent US20220348932A1",
  "target": "NADH-dependent methanol dehydrogenase (MeDH) from Bacillus methanolicus MGA3, internal laboratory designation 2315 (tested as purified 2315A) (Bacillus methanolicus MGA3)",
  "experiment": "cell-based or functional assay",
  "data": [
    {"substance": "activator protein (ACT) from Bacillus methanolicus MGA3, internal laboratory designation 2317 (tested as purified 2317A) (enzyme)", "values": [
      {"measurement": "ratio of ACT to MeDH in an in vitro methanol dehydrogenase activation test (5 M methanol, 2 mM NAD, 10 µM MeDH 2315A, pH 7.4) (ACT:MeDH ratio)", "value": 10}
    ]}
  ]
}
